# Laboratory results published in paper PMC5320558, “The general PTS component HPr determines the preference for glucose over mannitol” (Scientific Reports, 2017).
# Key:
# [1] = target: Untagged HPr (wild type) (E. coli) (UniProt P0AA04); experiment: SPR; HPr immobilised on a CM5 sensor chip, various concentrations of MtlR applied; BIAcore 3000; BIAevaluation, assuming a 1:1 interaction
# [2] = target: Untagged HPr (wild type) (E. coli) (UniProt P0AA04); experiment: SEC; gel filtration on Superose 12 10/300 GL of MtlR alone, HPr alone and their mixture; fractions analysed by SDS-PAGE
# [3] = target: the molecule itself; experiment: as above
Molecule,Kd [1] [nM],stoichiometry N [2],stoichiometry N [3]
Untagged MtlR (mannitol operon repressor) (from UniProt P0AF10 1-195) (natural protein),62.2,1 HPr:MtlR,
"Untagged MtlR (mannitol operon repressor) (natural protein, E. coli, UniProt P0AF10 1-195, looked up, MtlR, transcriptional repressor of the mtl operon, E. coli; monomer approximately 22.0 kDa; Eluted as a tetramer in gel filtration; source: overexpressed, purified (MonoQ, Superdex 75)) MVDQAQDTLRPNNRLSDMQATMEQTQAFENRVLERLNAGKTVRSFLITAVELLTEAVNLLVLQVFRKDDYAVKYAVEPLLDGDGPLGDLSVRLKLIYGLGVINRQEYEDAELLMALREELNHDGNEYAFTDDEILGPFGELHCVAALPPPPQFEPADSSLYAMQIQRYQQAVRSTMVLSLTELISKISLKKAFQK",,,4
